# Columns and labels:
# 14-analyte M-DP panel = assay: Pharmacodynamic M-DP score, 14-analyte panel (SomaLogic SOMAscan), clinical studies in RA; type: in vivo, human; settings: for M-DP score mean difference ± SD, Good vs. No / M-DP score mean ± SD, DAS28-CRP response group Good / M-DP score mean ± SD, DAS28-CRP response group Moderate / M-DP score mean ± SD, DAS28-CRP response group No: response at week 24
# Source text: Serum samples and data from eight interventional clinical studies with seven different active treatments for RA or placebo treatment were obtained and analyzed: sirukumab (anti-IL-6) and placebo treatments in SIRROUND-M (NCT01689532; Takeuchi T, et al. Arthritis Res Ther. 2018 Mar. 7; 20(1): 42), SIRROUND-D (NCT01604343; Takeuchi T, et al. Ann Rheum Dis. 2017 Dec.; 76(12): 2001-2008), and SIRROUND-T (NCT01606761; Aletaha D, et al. Lancet. 2017 Mar. 25; 389(10075): 1206-1217); sirukumab and adalimumab (anti-TNF-alpha) treatments in SIRROUND-H (NCT02019472; Taylor PC, et al. Ann Rheum Dis. 2018 May; 77(5): 658-666); golimumab (anti-TNF-alpha) treatment in GO-FURTHER (NCT00973479; Weinblatt ME, et al. Ann Rheum Dis. 2013 March; 72(3): 381-9); guselkumab (anti-IL-23p19), ustekinumab (anti-IL-12/IL-23p40), and placebo treatments in CNTO1275ARA2001 (NCT01645280; Cox JD, et al. […]); JNJ-40346527 (colony-stimulating factor-1 inhibitor) and placebo treatments in 40346527ARA2001 (NCT01597739; Genovese MC, et al. J Rheumatol. 2015 October; 42(10): 1752-60). Plasma samples were obtained from the RA-MAP TACERA study (Cope AP, et al. Nat Rev Rheumatol. 2018 January; 14(1): 53-60) before (baseline) and 6-months after initiation of conventional synthetic disease-modifying anti-rheumatic drugs (csDMARDs). Details of treatment dose groups, concomitant methotrexate use, and previous experience with csDMARDs and biologics are reported in Table 1. The studies were conducted in accordance with the Declaration of Helsinki. The study protocols were reviewed and approved by an independent ethics committee or institutional review board for each study center. Written informed consent was obtained from all patients before study entry. Additional study details and patient characteristics are available in the referenced publications for each study. For SIRROUND-D and SIRROUND-T studies, sets of serum samples from demographically-matched healthy controls were obtained from commercial sources (BioIVT, Westbury, N.Y.).
# Serum samples from baseline (week 0) and the time points indicated in Table 1 were provided for quantification of 1189 serum analytes using the SomaScan v3.1 platform (SomaLogic, Boulder, Colo.; www.somalogic.com), with the exception of RA-MAP TACERA, for which plasma samples were analyzed for 1301 analytes using the SomaScan v3.2 platform. For some studies, a redacted dataset reporting data for a subset of the analytes was obtained. Relative fluorescence unit (RFU) data were sequentially normalized for hybridization controls (internal standards per samples), median signal across all samples (assumes same total protein concentration across sample set), and calibration controls (common sample standards across analysis plates). Samples failed quality control standards defined by Somalogic were excluded from analyses. The normalized RFU values were log2-transformed for subsequent analyses.
# Changes in analyte expression levels were calculated for individual samples as the log2 transform of the ratio of the analyte level at the indicated time point (visit level) over the analyte level at baseline (baseline level) for a given subject, i.e., log 2(visit level/baseline level). Changes in RA disease-associated analytes per sample were summarized using a pharmacodynamic (PD) molecular disease profile (M-DP) score, defined as the median value of the log 2(visit level/baseline level) values for analytes in the defined M-DP analyte set. […] PD M-DP scores in the log 2(visit level/baseline level) scale can be transformed to percent change from baseline, using the transformation: (2^M-DP score−1)×100%.
# Statistical analyses were performed on log2-transformed data, for either normalized Relative fluorescence unit (RFU) datasets or within-subject fold/baseline datasets. Significance of differences between groups was evaluated using General Linear Models, with t-tests when comparing two groups. […]
# RA patients = settings: RA patients; cited from earlier work
# [1] = SIRROUND-D, score at week 4, sirukumab SC 50 mg q4w
# [2] = SIRROUND-D, score at week 4, sirukumab SC 100 mg q2w
# [3] = SIRROUND-D, score at week 24, sirukumab SC 50 mg q4w
# [4] = SIRROUND-D, score at week 24, sirukumab SC 100 mg q2w
# [5] = SIRROUND-H, score at week 4, sirukumab SC 50 mg q4w or adalimumab SC 40 mg q2w
# [6] = SIRROUND-M, score at week 4, sirukumab SC 50 mg q4w
# [7] = SIRROUND-M, score at week 4, sirukumab SC 100 mg q2w
# [8] = SIRROUND-T, score at week 4, sirukumab SC 50 mg q4w
# [9] = SIRROUND-T, score at week 4, sirukumab SC 100 mg q2w
# [10] = SIRROUND-T, score at week 24, sirukumab SC 50 mg q4w
# [11] = SIRROUND-T, score at week 24, sirukumab SC 100 mg q2w
molecule,measurement,setting,value
"Sirukumab (antibody, chains of the INN, looked up, V domains shown, a human anti-interleukin-6 (IL-6) monoclonal antibody) VH: EVQLVESGGGLVQPGGSLRLSCAASGFTFSPFAMSWVRQAPGKGLEWVAKISPGGSWTYYSDTVTGRFTISRDNAKNSLYLQMNSLRAEDTAVYYCARQLWGYYALDIWGQGTTVTVSS VL: EIVLTQSPATLSLSPGERATLSCSASISVSYMYWYQQKPGQAPRLLIYDMSNLASGIPARFSGSGSGTDFTLTISSLEPEDFAVYYCMQWSGYPYTFGGGTKVEIK","M-DP score mean ± SD, All treated",14-analyte M-DP panel; [1],−0.42 ± 0.34 log2 (fold/baseline)
same,"M-DP score mean ± SD, All treated","14-analyte M-DP panel; SIRROUND-D, score at week 4, sirukumab SC 50 mg q4w, listed as sirukumab",-0.42±0.34 log2 (fold/baseline)
same,"M-DP score mean difference ± SD, Good vs. No",14-analyte M-DP panel; [1],−0.08 ± 0.33 log2 (fold/baseline)
same,"M-DP score mean ± SD, DAS28-CRP response group Good",14-analyte M-DP panel; [1],−0.44 ± 0.32 log2 (fold/baseline)
same,"M-DP score mean ± SD, DAS28-CRP response group Moderate",14-analyte M-DP panel; [1],−0.43 ± 0.36 log2 (fold/baseline)
same,"M-DP score mean ± SD, DAS28-CRP response group No",14-analyte M-DP panel; [1],−0.36 ± 0.35 [44]+ log2 (fold/baseline)
same,"M-DP score mean ± SD, All treated",14-analyte M-DP panel; [2],−0.48 ± 0.30 log2 (fold/baseline)
same,"M-DP score mean ± SD, All treated","14-analyte M-DP panel; SIRROUND-D, score at week 4, sirukumab SC 100 mg q2w, listed as sirukumab",-0.48±0.30 log2 (fold/baseline)
same,"M-DP score mean difference ± SD, Good vs. No",14-analyte M-DP panel; [2],−0.27 ± 0.30 log2 (fold/baseline)
same,"M-DP score mean ± SD, DAS28-CRP response group Good",14-analyte M-DP panel; [2],−0.50 ± 0.29 log2 (fold/baseline)
same,"M-DP score mean ± SD, DAS28-CRP response group Moderate",14-analyte M-DP panel; [2],−0.51 ± 0.30 log2 (fold/baseline)
same,"M-DP score mean ± SD, DAS28-CRP response group No",14-analyte M-DP panel; [2],−0.33 ± 0.32 [28]+ log2 (fold/baseline)
same,"M-DP score mean ± SD, All treated",14-analyte M-DP panel; [3],−0.61 ± 0.40 log2 (fold/baseline)
same,"M-DP score mean ± SD, DAS28-CRP response group Good",14-analyte M-DP panel; [3],−0.65 ± 0.39 log2 (fold/baseline)
same,"M-DP score mean ± SD, DAS28-CRP response group Moderate",14-analyte M-DP panel; [3],−0.59 ± 0.39 log2 (fold/baseline)
same,"M-DP score mean ± SD, DAS28-CRP response group No",14-analyte M-DP panel; [3],0.06 ± 0.00 [1] log2 (fold/baseline)
same,"M-DP score mean ± SD, All treated",14-analyte M-DP panel; [4],−0.69 ± 0.31 log2 (fold/baseline)
same,"M-DP score mean ± SD, DAS28-CRP response group Good",14-analyte M-DP panel; [4],−0.69 ± 0.34 log2 (fold/baseline)
same,"M-DP score mean ± SD, DAS28-CRP response group Moderate",14-analyte M-DP panel; [4],−0.75 ± 0.20 log2 (fold/baseline)
same,"M-DP score mean ± SD, DAS28-CRP response group No",14-analyte M-DP panel; [4],−0.52 ± 0.37 [2] log2 (fold/baseline)
same,M-DP score GMean decrease from baseline,"14-analyte M-DP panel; SIRROUND-D, week 4, sirukumab 50 mg q4w",21%
same,M-DP score GMean decrease from baseline,"14-analyte M-DP panel; SIRROUND-D, week 4, sirukumab 100 mg q2w",25%
same,"M-DP score mean ± SD, All treated",14-analyte M-DP panel; [5],−0.41 ± 0.30 log2 (fold/baseline)
same,"M-DP score mean difference ± SD, Good vs. No",14-analyte M-DP panel; [5],−0.07 ± 0.30 log2 (fold/baseline)
same,"M-DP score mean ± SD, DAS28-CRP response group Good",14-analyte M-DP panel; [5],−0.45 ± 0.33 log2 (fold/baseline)
same,"M-DP score mean ± SD, DAS28-CRP response group Moderate",14-analyte M-DP panel; [5],−0.40 ± 0.30 log2 (fold/baseline)
same,"M-DP score mean ± SD, DAS28-CRP response group No",14-analyte M-DP panel; [5],−0.38 ± 0.22 [12]+ log2 (fold/baseline)
same,"M-DP score mean ± SD, All treated",14-analyte M-DP panel; [6],−0.51 ± 0.37 log2 (fold/baseline)
same,"M-DP score mean difference ± SD, Good vs. No",14-analyte M-DP panel; [6],−0.40 ± 0.37 log2 (fold/baseline)
same,"M-DP score mean ± SD, DAS28-CRP response group Good",14-analyte M-DP panel; [6],−0.59 ± 0.38 log2 (fold/baseline)
same,"M-DP score mean ± SD, DAS28-CRP response group Moderate",14-analyte M-DP panel; [6],−0.46 ± 0.30 log2 (fold/baseline)
same,"M-DP score mean ± SD, DAS28-CRP response group No",14-analyte M-DP panel; [6],−0.19 ± 0.25 [7] log2 (fold/baseline)
same,"M-DP score mean ± SD, All treated",14-analyte M-DP panel; [7],−0.59 ± 0.29 log2 (fold/baseline)
same,"M-DP score mean ± SD, DAS28-CRP response group Good",14-analyte M-DP panel; [7],−0.55 ± 0.27 log2 (fold/baseline)
same,"M-DP score mean ± SD, DAS28-CRP response group Moderate",14-analyte M-DP panel; [7],−0.70 ± 0.34 log2 (fold/baseline)
same,"M-DP score mean ± SD, DAS28-CRP response group No",14-analyte M-DP panel; [7],−0.51 ± 0.10 [2] log2 (fold/baseline)
same,"M-DP score mean ± SD, All treated",14-analyte M-DP panel; [8],−0.34 ± 0.28 log2 (fold/baseline)
same,"M-DP score mean difference ± SD, Good vs. No",14-analyte M-DP panel; [8],−0.06 ± 0.29 log2 (fold/baseline)
same,"M-DP score mean ± SD, DAS28-CRP response group Good",14-analyte M-DP panel; [8],−0.35 ± 0.30 log2 (fold/baseline)
same,"M-DP score mean ± SD, DAS28-CRP response group Moderate",14-analyte M-DP panel; [8],−0.37 ± 0.26 log2 (fold/baseline)
same,"M-DP score mean ± SD, DAS28-CRP response group No",14-analyte M-DP panel; [8],−0.29 ± 0.26 [30]+ log2 (fold/baseline)
same,"M-DP score mean ± SD, All treated",14-analyte M-DP panel; [9],−0.49 ± 0.35 log2 (fold/baseline)
same,"M-DP score mean difference ± SD, Good vs. No",14-analyte M-DP panel; [9],−0.20 ± 0.34 log2 (fold/baseline)
same,"M-DP score mean ± SD, DAS28-CRP response group Good",14-analyte M-DP panel; [9],−0.55 ± 0.35 log2 (fold/baseline)
same,"M-DP score mean ± SD, DAS28-CRP response group Moderate",14-analyte M-DP panel; [9],−0.54 ± 0.35 log2 (fold/baseline)
same,"M-DP score mean ± SD, DAS28-CRP response group No",14-analyte M-DP panel; [9],−0.35 ± 0.33 [39]+ log2 (fold/baseline)
same,"M-DP score mean ± SD, All treated",14-analyte M-DP panel; [10],−0.41 ± 0.33 log2 (fold/baseline)
same,"M-DP score mean difference ± SD, Good vs. No",14-analyte M-DP panel; [10],−0.12 ± 0.34 log2 (fold/baseline)
same,"M-DP score mean ± SD, DAS28-CRP response group Good",14-analyte M-DP panel; [10],−0.46 ± 0.35 log2 (fold/baseline)
same,"M-DP score mean ± SD, DAS28-CRP response group Moderate",14-analyte M-DP panel; [10],−0.41 ± 0.29 log2 (fold/baseline)
same,"M-DP score mean ± SD, DAS28-CRP response group No",14-analyte M-DP panel; [10],−0.34 ± 0.31 [31]+ log2 (fold/baseline)
same,"M-DP score mean ± SD, All treated",14-analyte M-DP panel; [11],−0.53 ± 0.36 log2 (fold/baseline)
same,"M-DP score mean difference ± SD, Good vs. No",14-analyte M-DP panel; [11],−0.18 ± 0.35 log2 (fold/baseline)
same,"M-DP score mean ± SD, DAS28-CRP response group Good",14-analyte M-DP panel; [11],−0.59 ± 0.38 log2 (fold/baseline)
same,"M-DP score mean ± SD, DAS28-CRP response group Moderate",14-analyte M-DP panel; [11],−0.54 ± 0.37 log2 (fold/baseline)
same,"M-DP score mean ± SD, DAS28-CRP response group No",14-analyte M-DP panel; [11],−0.41 ± 0.28 [40]+ log2 (fold/baseline)
same,M-DP score GMean decrease from baseline,"14-analyte M-DP panel; SIRROUND-T, week 4, sirukumab 50 mg q4w",22%
same,M-DP score GMean decrease from baseline,"14-analyte M-DP panel; SIRROUND-T, week 4, sirukumab 100 mg q2w",29%
same,clinical efficacy in the underlying clinical studies,RA patients,clinically efficacious

# Source: US20230243822A1, “MOLECULAR DISEASE PROFILE AND USE THEREOF FOR MONITORING AND TREATING RHEUMATAOID ARTHRITIS” (JANSSEN BIOTECH, INC., priority 2020, published 2023)
